Reference: US20130004519A1 (published 2013)

What was measured:
[1] = target: T1, His-tagged human tenascin-C (human, UniProt P24821 23-2201); test: SPR (Biacore 2000), tenascin-C-his on CM5 chip, SMOC1 as analyte 3-300 nM, Langmuir 1:1 model, apparent KD
T1 construct: mature; The same construct was coupled to Sepharose 4B, coupled to the CM5 chip and expressed in COS cells for co-immunoprecipitation; also called TNC; hTNC; not shown: His tag
Method: Surface Plasmon Resonance Spectroscopy. Surface plasmon resonance spectroscopy was performed using a Biacore 2000 (BIAcore AB) system. Purified human tenascin-his protein was coupled in 25 mM sodium acetate pH 5 with a flow rate of 5 μl/min to a CM5 chip beforehand activated with N-hydroxysuccinimide and 1-ethyl-3-(3-dimethylaminopropyl)carbodiimide hydrochloride. Unbound reactive groups were then saturated with 1 M ethanolamine hydrochloride, pH 8.5. Experiments were carried out using increasing concentrations (3, 10, 30, 100 and 300 nM) of SMOC1 diluted in running buffer (pH 7.4, 20 mM Hepes, 150 mM NaCl, 2 mM CaCl2, 0.005% P20). The analyte was passed over the sensor chip with a constant flow rate of 25 μl/min for 240 s, and dissociation was measured over 500 s. Fittings of the data, overlay plots, and calculation of KD values were done with BIAevaluation software 4.1.
Interaction between tenascin-C and SMOC1 by Surface Plasmon Resonance Spectroscopy. In order to firmly establish binding between SMOC1 and tenascin-C, the present inventors performed Surface Plasmon Resonance Spectroscopy. Purified his-tagged tenascin-C was coupled to a CM5 chip and SMOC1 were tested as soluble analyte at increasing concentrations. Associations and dissociations of the obtained binding curves were analyzed in a Langmuir 1:1 binding model. […]

[2] = target: T2, horse fibronectin coupled to CNBr-activated Sepharose 4B (horse, UniProt Q28377 32-2477, limits assumed); test: pull-down from HEK293 conditioned medium on horse fibronectin-Sepharose 4B, nanoLC-MSMS
T2 construct: Second control column of the pull-down; also called fibronectin column; FN-column

[3] = target: T1, His-tagged human tenascin-C; test: pull-down on tenascin-C-Sepharose 4B, multiple reaction monitoring

T2 sequence (Q28377 32-2477 limits assumed): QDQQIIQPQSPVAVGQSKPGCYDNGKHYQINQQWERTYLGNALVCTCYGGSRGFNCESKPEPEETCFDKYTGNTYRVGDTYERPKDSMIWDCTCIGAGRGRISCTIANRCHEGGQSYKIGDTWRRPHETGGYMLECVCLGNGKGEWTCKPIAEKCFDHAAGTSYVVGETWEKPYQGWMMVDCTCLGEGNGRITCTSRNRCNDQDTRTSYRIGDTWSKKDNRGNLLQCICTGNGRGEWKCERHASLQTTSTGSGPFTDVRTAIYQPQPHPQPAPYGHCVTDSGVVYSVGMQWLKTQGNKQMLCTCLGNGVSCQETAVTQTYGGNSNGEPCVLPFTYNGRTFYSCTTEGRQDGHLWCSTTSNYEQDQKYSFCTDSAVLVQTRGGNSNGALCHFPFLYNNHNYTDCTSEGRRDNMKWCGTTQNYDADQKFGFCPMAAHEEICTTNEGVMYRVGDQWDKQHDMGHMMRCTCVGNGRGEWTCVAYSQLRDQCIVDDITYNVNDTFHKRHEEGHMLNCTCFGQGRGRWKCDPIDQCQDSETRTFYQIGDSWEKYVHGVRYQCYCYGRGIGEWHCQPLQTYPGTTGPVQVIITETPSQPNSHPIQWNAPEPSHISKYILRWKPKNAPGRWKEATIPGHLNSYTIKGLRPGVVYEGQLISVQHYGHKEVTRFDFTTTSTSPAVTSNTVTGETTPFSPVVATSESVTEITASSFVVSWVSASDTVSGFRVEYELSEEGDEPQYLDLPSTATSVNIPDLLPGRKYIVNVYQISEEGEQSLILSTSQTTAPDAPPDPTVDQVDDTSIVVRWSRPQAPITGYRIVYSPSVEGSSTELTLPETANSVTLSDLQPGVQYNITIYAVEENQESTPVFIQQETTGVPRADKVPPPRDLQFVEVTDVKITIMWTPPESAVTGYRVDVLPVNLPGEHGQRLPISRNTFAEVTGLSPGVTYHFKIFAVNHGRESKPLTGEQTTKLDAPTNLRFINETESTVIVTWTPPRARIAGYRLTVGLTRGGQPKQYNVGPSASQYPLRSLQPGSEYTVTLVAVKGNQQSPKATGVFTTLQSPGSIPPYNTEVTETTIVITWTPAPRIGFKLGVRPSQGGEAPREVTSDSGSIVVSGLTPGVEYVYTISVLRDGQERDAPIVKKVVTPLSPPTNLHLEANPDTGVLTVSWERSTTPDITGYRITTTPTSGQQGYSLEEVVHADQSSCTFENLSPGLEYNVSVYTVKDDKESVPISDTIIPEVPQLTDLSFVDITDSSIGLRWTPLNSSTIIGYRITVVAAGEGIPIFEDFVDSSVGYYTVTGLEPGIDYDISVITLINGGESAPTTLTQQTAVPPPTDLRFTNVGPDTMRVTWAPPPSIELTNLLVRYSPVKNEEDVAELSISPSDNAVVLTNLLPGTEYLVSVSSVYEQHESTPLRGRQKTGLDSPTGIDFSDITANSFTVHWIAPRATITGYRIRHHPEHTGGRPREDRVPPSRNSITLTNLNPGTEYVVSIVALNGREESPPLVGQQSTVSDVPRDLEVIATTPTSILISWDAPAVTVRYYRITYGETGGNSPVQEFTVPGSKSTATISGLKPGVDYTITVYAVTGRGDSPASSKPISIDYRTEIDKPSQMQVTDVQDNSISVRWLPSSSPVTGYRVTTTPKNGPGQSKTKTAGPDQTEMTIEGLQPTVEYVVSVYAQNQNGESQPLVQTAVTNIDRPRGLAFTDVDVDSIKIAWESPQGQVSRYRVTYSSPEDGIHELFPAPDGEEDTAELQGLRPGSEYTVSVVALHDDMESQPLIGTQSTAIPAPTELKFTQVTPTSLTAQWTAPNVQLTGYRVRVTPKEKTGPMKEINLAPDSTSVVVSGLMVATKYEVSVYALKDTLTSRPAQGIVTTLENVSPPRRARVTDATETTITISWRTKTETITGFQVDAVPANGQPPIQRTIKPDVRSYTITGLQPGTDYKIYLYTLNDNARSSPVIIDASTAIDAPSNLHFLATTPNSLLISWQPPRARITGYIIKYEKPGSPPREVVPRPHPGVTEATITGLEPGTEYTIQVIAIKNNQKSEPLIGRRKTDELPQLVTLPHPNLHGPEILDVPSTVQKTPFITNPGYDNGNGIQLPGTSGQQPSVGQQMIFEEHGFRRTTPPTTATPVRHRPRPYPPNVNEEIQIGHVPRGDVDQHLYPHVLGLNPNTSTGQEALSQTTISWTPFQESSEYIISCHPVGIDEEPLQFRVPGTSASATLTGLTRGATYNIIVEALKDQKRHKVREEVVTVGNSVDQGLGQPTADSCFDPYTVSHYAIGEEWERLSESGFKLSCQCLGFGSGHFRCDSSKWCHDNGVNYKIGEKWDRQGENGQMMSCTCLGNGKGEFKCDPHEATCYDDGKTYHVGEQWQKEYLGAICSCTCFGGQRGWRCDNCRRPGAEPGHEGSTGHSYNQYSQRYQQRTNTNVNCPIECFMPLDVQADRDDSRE
T1 sequence (P24821 23-2201): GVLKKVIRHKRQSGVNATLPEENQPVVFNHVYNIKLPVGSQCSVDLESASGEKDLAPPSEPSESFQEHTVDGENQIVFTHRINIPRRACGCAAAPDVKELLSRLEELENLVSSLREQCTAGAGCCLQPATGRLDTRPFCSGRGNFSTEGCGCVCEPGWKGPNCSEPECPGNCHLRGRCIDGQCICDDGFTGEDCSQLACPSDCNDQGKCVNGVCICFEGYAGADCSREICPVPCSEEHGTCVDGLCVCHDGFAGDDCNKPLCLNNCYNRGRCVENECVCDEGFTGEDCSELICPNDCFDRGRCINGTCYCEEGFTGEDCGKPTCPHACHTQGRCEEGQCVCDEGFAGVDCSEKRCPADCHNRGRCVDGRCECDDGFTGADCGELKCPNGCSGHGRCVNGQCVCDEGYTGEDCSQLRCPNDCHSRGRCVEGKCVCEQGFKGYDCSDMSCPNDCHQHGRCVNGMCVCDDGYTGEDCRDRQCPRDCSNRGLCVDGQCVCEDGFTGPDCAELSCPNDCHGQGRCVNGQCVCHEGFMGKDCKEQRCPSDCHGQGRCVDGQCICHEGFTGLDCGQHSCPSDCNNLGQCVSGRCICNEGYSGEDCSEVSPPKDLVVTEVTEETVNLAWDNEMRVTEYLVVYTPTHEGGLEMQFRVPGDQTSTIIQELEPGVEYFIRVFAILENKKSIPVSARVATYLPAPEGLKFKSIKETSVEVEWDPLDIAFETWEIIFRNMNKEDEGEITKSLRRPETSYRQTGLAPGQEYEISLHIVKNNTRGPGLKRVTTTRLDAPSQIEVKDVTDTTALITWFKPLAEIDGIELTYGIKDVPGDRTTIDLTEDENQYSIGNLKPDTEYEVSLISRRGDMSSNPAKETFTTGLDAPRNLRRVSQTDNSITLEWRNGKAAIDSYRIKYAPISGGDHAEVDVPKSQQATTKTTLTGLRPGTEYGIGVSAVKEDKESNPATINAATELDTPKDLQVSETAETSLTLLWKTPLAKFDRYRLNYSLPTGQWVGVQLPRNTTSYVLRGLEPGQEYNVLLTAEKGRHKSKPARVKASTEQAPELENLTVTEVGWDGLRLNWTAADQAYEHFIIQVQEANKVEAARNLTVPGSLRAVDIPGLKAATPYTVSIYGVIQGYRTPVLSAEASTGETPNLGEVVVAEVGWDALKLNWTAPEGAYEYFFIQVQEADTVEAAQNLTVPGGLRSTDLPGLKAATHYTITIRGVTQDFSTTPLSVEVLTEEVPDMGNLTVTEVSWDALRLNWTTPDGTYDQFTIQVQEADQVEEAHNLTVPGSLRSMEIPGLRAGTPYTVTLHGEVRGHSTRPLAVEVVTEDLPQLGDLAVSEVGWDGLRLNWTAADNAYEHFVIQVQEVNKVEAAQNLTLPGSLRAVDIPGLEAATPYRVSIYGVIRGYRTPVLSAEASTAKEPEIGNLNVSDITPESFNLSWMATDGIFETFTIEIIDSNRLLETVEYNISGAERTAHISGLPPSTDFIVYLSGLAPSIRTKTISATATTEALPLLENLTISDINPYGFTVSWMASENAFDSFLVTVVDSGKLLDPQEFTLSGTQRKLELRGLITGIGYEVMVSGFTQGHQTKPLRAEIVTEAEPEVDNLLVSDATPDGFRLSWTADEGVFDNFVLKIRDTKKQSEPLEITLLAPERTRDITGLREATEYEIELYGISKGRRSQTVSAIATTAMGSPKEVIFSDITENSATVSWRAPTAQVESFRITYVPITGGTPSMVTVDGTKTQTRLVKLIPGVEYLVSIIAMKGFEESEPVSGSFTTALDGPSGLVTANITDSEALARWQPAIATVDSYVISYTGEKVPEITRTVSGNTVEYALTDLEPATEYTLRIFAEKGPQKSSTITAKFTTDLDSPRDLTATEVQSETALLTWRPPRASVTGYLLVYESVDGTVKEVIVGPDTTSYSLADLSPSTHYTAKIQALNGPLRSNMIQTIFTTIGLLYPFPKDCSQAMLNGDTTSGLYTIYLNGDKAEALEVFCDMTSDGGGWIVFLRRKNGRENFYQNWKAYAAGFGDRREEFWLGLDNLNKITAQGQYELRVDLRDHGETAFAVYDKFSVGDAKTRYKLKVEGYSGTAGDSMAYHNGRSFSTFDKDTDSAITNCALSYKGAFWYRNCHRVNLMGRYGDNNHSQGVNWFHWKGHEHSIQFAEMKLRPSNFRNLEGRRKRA

Binder	Kd [1] [nM]	MASCOT Score (fibronectin) [2]	spectrum count (fibronectin) [2]	normalized enrichment (MRM), tenascin-C against control [3] [fold]
human recombinant SMOC1 (soluble analyte in surface plasmon resonance) (other, UniProt Q9H4F8 27-434, looked up, mature; also called hSMOC1; not shown: C-terminal tag: either 6 histidines alone (SMOC1-his) or myc-DDK plus 6 histidines) HRTTGPRFLISDRDPQCNLHCSRTQPKPICASDGRSYESMCEYQRAKCRDPTLGVVHRGRCKDAGQSKCRLERAQALEQAKKPQEAVFVPECGEDGSFTQVQCHTYTGYCWCVTPDGKPISGSSVQNKTPVCSGSVTDKPLSQGNSGRKDDGSKPTPTMETQPVFDGDEITAPTLWIKHLVIKDSKLNNTNIRNSEKVYSCDQERQSALEEAQQNPREGIVIPECAPGGLYKPVQCHQSTGYCWCVLVDTGRPLPGTSTRYVMPSCESDARAKTTEADDPFKDRELPGCPEGKKMEFITSLLDALTTDMVQAINSAAPTGGGRFSEPDPSHTLEERVVHWYFSQLDSNSSNDINKREMKPFKRYVKKKAKPKKCARRFTDYCDLNKDKVISLPELKGCLGVSKEGRLV	2.2	–	–	–
SPARC-related modular calcium-binding protein 1 (SMOC1) from HEK293 conditioned medium (other, human, UniProt Q9H4F8 27-434, looked up, Endogenous protein pulled down from medium) HRTTGPRFLISDRDPQCNLHCSRTQPKPICASDGRSYESMCEYQRAKCRDPTLGVVHRGRCKDAGQSKCRLERAQALEQAKKPQEAVFVPECGEDGSFTQVQCHTYTGYCWCVTPDGKPISGSSVQNKTPVCSGSVTDKPLSQGNSGRKDDGSKPTPTMETQPVFDGDEITAPTLWIKHLVIKDSKLNNTNIRNSEKVYSCDQERQSALEEAQQNPREGIVIPECAPGGLYKPVQCHQSTGYCWCVLVDTGRPLPGTSTRYVMPSCESDARAKTTEADDPFKDRELPGCPEGKKMEFITSLLDALTTDMVQAINSAAPTGGGRFSEPDPSHTLEERVVHWYFSQLDSNSSNDINKREMKPFKRYVKKKAKPKKCARRFTDYCDLNKDKVISLPELKGCLGVSKEGRLV	–	0	0	4.5
Nidogen-2 (other, human, UniProt Q14112 31-1375, looked up, also called NID2) LHPDELFPHGESWGDQLLQEGDDESSAVVKLANPLHFYEARFSNLYVGTNGIISTQDFPRETQYVDYDFPTDFPAIAPFLADIDTSHGRGRVLYREDTSPAVLGLAARYVRAGFPRSARFTPTHAFLATWEQVGAYEEVKRGALPSGELNTFQAVLASDGSDSYALFLYPANGLQFLGTRPKESYNVQLQLPARVGFCRGEADDLKSEGPYFSLTSTEQSVKNLYQLSNLGIPGVWAFHIGSTSPLDNVRPAAVGDLSAAHSSVPLGRSFSHATALESDYNEDNLDYYDVNEEEAEYLPGEPEEALNGHSSIDVSFQSKVDTKPLEESSTLDPHTKEGTSLGEVGGPDLKGQVEPWDERETRSPAPPEVDRDSLAPSWETPPPYPENGSIQPYPDGGPVPSEMDVPPAHPEEEIVLRSYPASGHTTPLSRGTYEVGLEDNIGSNTEVFTYNAANKETCEHNHRQCSRHAFCTDYATGFCCHCQSKFYGNGKHCLPEGAPHRVNGKVSGHLHVGHTPVHFTDVDLHAYIVGNDGRAYTAISHIPQPAAQALLPLTPIGGLFGWLFALEKPGSENGFSLAGAAFTHDMEVTFYPGEETVRITQTAEGLDPENYLSIKTNIQGQVPYVSANFTAHISPYKELYHYSDSTVTSTSSRDYSLTFGAINQTWSYRIHQNITYQVCRHAPRHPSFPTTQQLNVDRVFALYNDEERVLRFAVTNQIGPVKEDSDPTPGNPCYDGSHMCDTTARCHPGTGVDYTCECASGYQGDGRNCVDENECATGFHRCGPNSVCINLPGSYRCECRSGYEFADDRHTCILITPPANPCEDGSHTCAPAGQARCVHHGGSTFSCACLPGYAGDGHQCTDVDECSENRCHPAATCYNTPGSFSCRCQPGYYGDGFQCIPDSTSSLTPCEQQQRHAQAQYAYPGARFHIPQCDEQGNFLPLQCHGSTGFCWCVDPDGHEVPGTQTPPGSTPPHCGPSPEPTQRPPTICERWRENLLEHYGGTPRDDQYVPQCDDLGHFIPLQCHGKSDFCWCVDKDGREVQGTRSQPGTTPACIPTVAPPMVRPTPRPDVTPPSVGTFLLYTQGQQIGYLPLNGTRLQKDAAKTLLSLHGSIIVGIDYDCRERMVYWTDVAGRTISRAGLELGAEPETIVNSGLISPEGLAIDHIRRTMYWTDSVLDKIESALLDGSERKVLFYTDLVNPRAIAVDPIRGNLYWTDWNREAPKIETSSLDGENRRILINTDIGLPNGLTFDPFSKLLCWADAGTKKLECTLPDGTGRRVIQNNLKYPFSIVSYADHFYHTDWRRDGVVSVNKHSGQFTDEYLPEQRSHLYGITAVYPYCPTGRK	–	0	0	–
Phosphoglycerate kinase 1 (enzyme, human, UniProt P00558 2-417, looked up, also called PGK1) SLSNKLTLDKLDVKGKRVVMRVDFNVPMKNNQITNNQRIKAAVPSIKFCLDNGAKSVVLMSHLGRPDGVPMPDKYSLEPVAVELKSLLGKDVLFLKDCVGPEVEKACANPAAGSVILLENLRFHVEEEGKGKDASGNKVKAEPAKIEAFRASLSKLGDVYVNDAFGTAHRAHSSMVGVNLPQKAGGFLMKKELNYFAKALESPERPFLAILGGAKVADKIQLINNMLDKVNEMIIGGGMAFTFLKVLNNMEIGTSLFDEEGAKIVKDLMSKAEKNGVKITLPVDFVTADKFDENAKTGQATVASGIPAGWMGLDCGPESSKKYAEAVTRAKQIVWNGPVGVFEWEAFARGTKALMDEVVKATSRGCITIIGGGDTATCCAKWNTEDKVSHVSTGGGASLELLEGKVLPGVDALSNI	–	100	6	–
